A short description of this series: total protein half-life in vivo (active degradation + dilution); higher = more stable protein.
Setting [1] is: E. coli NCM3722 delta-clpP delta-lon delta-hslV, growth: N-lim chemostat, doubling time 6 h.
Setting [2] is: E. coli NCM3722 delta-clpP, growth: N-lim chemostat, doubling time 6 h.
Where [3] appears, read: E. coli NCM3722 delta-hslV, growth: N-lim chemostat, doubling time 6 h.
The mark [4] stands for this setting: E. coli NCM3722 delta-lon, growth: N-lim chemostat, doubling time 6 h.
[5] abbreviates: E. coli NCM3722 delta-smpB, growth: N-lim chemostat, doubling time 6 h.
Where [6] appears, read: wild type E. coli NCM3722, growth: C-lim chemostat, doubling time 3 h.
Setting [7] is: wild type E. coli NCM3722, growth: C-lim chemostat, doubling time 6 h.
Setting [8] is: wild type E. coli NCM3722, growth: C-lim chemostat, doubling time 12 h.
The mark [9] stands for this setting: wild type E. coli NCM3722, growth: N-lim chemostat, doubling time 6 h.
The mark [10] stands for this setting: wild type E. coli NCM3722, growth: N-lim chemostat, doubling time 12 h.
The mark [11] stands for this setting: wild type E. coli NCM3722, growth: P-lim chemostat, doubling time 6 h.
Where [12] appears, read: wild type E. coli NCM3722, growth: P-lim chemostat, doubling time 12 h.

The results in this text go back to the supplement of paper PMC11246515.

± gives the standard deviation of the averaged measurements.

For “MIVKKLTLPKDFLWGGAVAAHQVEGGWNKGGKGPSICDVLTGGAHGVPREITKEVLPGKYYPNHEAVDFYGHYKEDIKLFAEMGFKCFRTSIAWTRIFPKGDEAQPNEEGLKFYDDMFDELLKYNIEPVITLSHFEMPLHLVQQYGSWTNRKVVDFFVRFAEVVFERYKHKVKYWMTFNEINNQRNWRAPLFGYCCSGVVYTEHENPEETMYQVLHHQFVASALAVKAARRINPEMKVGCMLAMVPLYPYSCNPDDVMFAQESMRERYVFTDVQLRGYYPSYVLNEWERRGFNIKMEDGDLDVLREGTCDYLGFSYYMTNAVKAEGGTGDAISGFEGSVPNPYVKASDWGWQIDPVGLRYALCELYERYQRPLFIVENGFGAYDKVEEDGSINDDYRIDYLRAHIEEMKKAVTYDGVDLMGYTPWGCIDCVSFTTGQYSKRYGFIYVNKHDDGTGDMSRSRKKSFNWYKEVIASNGEKL”, the “total protein half-life in vivo” value under setting [1] was found to be 5.79 ± 0.69 h; the “total protein half-life in vivo” value under setting [2] came to 5.12 ± 0.34 h; the “total protein half-life in vivo” value under setting [3] is 5.44 ± 0.26 h; the “total protein half-life in vivo” value under setting [4] was 5.46 ± 0.0062 h; the “total protein half-life in vivo” value under setting [5] was found to be 4.985 ± 0.0067 h; the “total protein half-life in vivo” value under setting [6] stood at 3.08 ± 0.12 h. Further, the “total protein half-life in vivo” value is, setting by setting: under setting [7], 5.89 ± 0.32 h; under setting [8], 10.03 ± 0.031 h; under setting [9], 4.85 ± 0.075 h; under setting [10], 9.46 ± 0.4 h; under setting [11], 6.17 ± 0.47 h; under setting [12], 11.1 ± 0.41 h.

Regarding “MNKVAQYYRELVASLSERLRNGERDIDALVEQARERVIKTGELTRTEVDELTRAVRRDLEEFAMSYEESLKEESDSVFMRVIKESLWQELADITDKTQLEWREVFQDLNHHGVYHSGEVVGLGNLVCEKCHFHLPIYTPEVLTLCPKCGHDQFQRRPFEP [P0AAT9]”, the “total protein half-life in vivo” value was 5.96 ± 0.99 h under setting [1]; 4.62 ± 0.043 h under setting [2]; 4.74 ± 0.38 h under setting [3]; 5.364 ± 0.034 h under setting [4]; 4.05 ± 0.48 h under setting [5]; 2.81 ± 0.34 h under setting [6]. Further, the “total protein half-life in vivo” value under setting [7] is 4.632 ± 0.011 h; the “total protein half-life in vivo” value under setting [8] stood at 8.29 ± 0.47 h; the “total protein half-life in vivo” value under setting [9] came to 3.87 ± 0.6 h; the “total protein half-life in vivo” value under setting [10] was 10.7 ± 3.1 h; the “total protein half-life in vivo” value under setting [11] was 5.95 ± 1.4 h; the “total protein half-life in vivo” value under setting [12] turned out to be 10.9 ± 0.48 h.

For the sequence “MKKLITANDIREAHARGEQAMSVVLRASIITPEAREVADLLGFTITECDESIPVTASVPASVPADKTESQRIRETIIAQLPEGQFTESLVAQLMEKVMKEKQSLEQGAMQPSFKSVTGKGGIKVIDGSSVKFGRFDGAEPHCVGLTDLVTGDDGSSMAAGFMQWENAFFPWTLNYDEIDMVLEGELHVRHEGQTMIAKAGDVMFIPKGSSIEFGTTSSVKFLYVAWPANWQSL”, the “total protein half-life in vivo” value turned out to be 5.08 ± 0.37 h under setting [1]; 1.62 h under setting [2]; 1.44 ± 0.19 h under setting [3]; 2.42 ± 0.052 h under setting [4]; 1.55 ± 0.36 h under setting [5]; 2.12 ± 0.14 h under setting [6]. Further, the “total protein half-life in vivo” value runs as follows: under setting [7], 4.18 ± 0.51 h; under setting [8], 5.42 ± 1.1 h; under setting [9], 1.84 h; under setting [10], 2.19 h; under setting [11], 2.44 h; under setting [12], 3.93 h.

As to “MTQTYNADAIEVLTGLEPVRRRPGMYTDTTRPNHLGQEVIDNSVDEALAGHAKRVDVILHADQSLEVIDDGRGMPVDIHPEEGVPAVELILCRLHAGGKFSNKNYQFSGGLHGVGISVVNALSKRVEVNVRRDGQVYNIAFENGEKVQDLQVVGTCGKRNTGTSVHFWPDETFFDSPRFSVSRLTHVLKAKAVLCPGVEITFKDEINNTEQRWCYQDGLNDYLAEAVNGLPTLPEKPFIGNFAGDTEAVDWALLWLPEGGELLTESYVNLIPTMQGGTHVNGLRQGLLDAMREFCEYRNILPRGVKLSAEDIWDRCAYVLSVKMQDPQFAGQTKERLSSRQCAAFVSGVVKDAFILWLNQNVQAAELLAEMAISSAQRRMRAAKKVVRKKLTSGPALPGKLADCTAQDLNRTELFLVEGDSAGGSAKQARDREYQAIMPLKGKILNTWEVSSDEVLASQEVHDISVAIGIDPDSDDLSQLRYGKICILADADSDGLHIATLLCALFVKHFRALVKHGHVYVALPPLYRIDLGKEVYYALTEEEKEGVLEQLKRKKGKPNVQRFKGLGEMNPMQLRETTLDPNTRRLVQLTIDDEDDQRTDAMMDMLLAKKRSEDRRNWLQEKGDMAEIEV”, the “total protein half-life in vivo” value was 5.85 ± 0.4 h under setting [1]; 6.09 ± 0.22 h under setting [2]; 5.29 ± 1.9 h under setting [3]; 4.41 ± 0.076 h under setting [4]; 3.56 ± 0.24 h under setting [5]; 2.68 ± 0.1 h under setting [6]. Further, the “total protein half-life in vivo” value came to 4.78 ± 0.23 h under setting [7]; 7.42 ± 0.43 h under setting [8]; 3.79 ± 0.16 h under setting [9]; 5.867 ± 0.054 h under setting [10]; 3.96 ± 0.39 h under setting [11]; 8.4 ± 0.31 h under setting [12].

Consider “MDHLPIFCQLRDRDCLIVGGGDVAERKARLLLDAGARLTVNALAFIPQFTAWADAGMLTLVEGPFDESLLDTCWLAIAATDDDALNQRVSEAAEARRIFCNVVDAPKAASFIMPSIIDRSPLMVAVSSGGTSPVLARLLREKLESLLPLHLGQVAKYAGQLRGRVKQQFATMGERRRFWEKLFVNDRLAQSLANNDQKAITETTEQLINEPLDHRGEVVLVGAGPGDAGLLTLKGLQQIQQADVVVYDRLVSDDIMNLVRRDADRVFVGKRAGYHCVPQEEINQILLREAQKGKRVVRLKGGDPFIFGRGGEELETLCNAGIPFSVVPGITAASGCSAYSGIPLTHRDYAQSVRLITGHLKTGGELDWENLAAEKQTLVFYMGLNQAATIQQKLIEHGMPGEMPVAIVENGTAVTQRVIDGTLTQLGELAQQMNSPSLIIIGRVVGLRDKLNWFSNH [P0AEA8]”, for which the “total protein half-life in vivo” value under setting [1] turned out to be 5.19 ± 0.22 h; the “total protein half-life in vivo” value under setting [2] amounted to 4.33 ± 0.24 h; the “total protein half-life in vivo” value under setting [3] is 4.17 ± 0.56 h; the “total protein half-life in vivo” value under setting [4] came to 5.23 ± 0.94 h; the “total protein half-life in vivo” value under setting [5] worked out at 4.7 ± 0.87 h; the “total protein half-life in vivo” value under setting [6] was found to be 3.42 ± 0.48 h. For the same sequence, the “total protein half-life in vivo” value runs as follows: under setting [7], 5.47 ± 0.28 h; under setting [8], 10.12 ± 0.019 h; under setting [9], 4.39 ± 0.22 h; under setting [10], 7.57 ± 0.15 h; under setting [11], 6.43 ± 1.1 h; under setting [12], 13.6 ± 2.6 h.

Turning to “MATPYISMAGIGKSFGPVHALKSVNLTVYPGEIHALLGENGAGKSTLMKVLSGIHEPTKGTITINNISYNKLDHKLAAQLGIGIIYQELSVIDELTVLENLYIGRHLTKKICGVNIIDWREMRVRAAMMLLRVGLKVDLDEKVANLSISHKQMLEIAKTLMLDAKVIIMDEPTSSLTNKEVDYLFLIMNQLRKEGTAIVYISHKLAEIRRICDRYTVMKDGSSVCSGIVSDVSNDDIVRLMVGRELQNRFNAMKENVSNLAHETVFEVRNVTSRDRKKVRDISFSVCRGEILGFAGLVGSGRTELMNCLFGVDKRAGGEIRLNGKDISPRSPLDAVKKGMAYITESRRDNGFFPNFSIAQNMAISRSLKDGGYKGAMGLFHEVDEQRTAENQRELLALKCHSVNQNITELSGGNQQKVLISKWLCCCPEVIIFDEPTRGIDVGAKAEIYKVMRQLADDGKVILMVSSELPEIITVCDRIAVFCEGRLTQILTNRDDMSEEEIMAWALPQE”, the “total protein half-life in vivo” value reads like this: under setting [5], greater than 8 h; under setting [6], 2.84 ± 0.095 h; under setting [7], 5.265 ± 0.0056 h; under setting [9], 6.14 h; under setting [12], 10.6 h.
